Like-named read-outs stand apart in the source and are kept apart here. Where no end group is shown, it is not given here.
Tests used:
[1] = target: FAT domain of human Pyk2 (residues 871-1005) (Homo sapiens, UniProt Q14289); experiment: ITC of leupaxin LD peptides and leupaxin^1-105 binding to Pyk2-FAT
Pyk2-FAT = experiment: NMR titration / chemical shift perturbation of 15N-labeled Pyk2-FAT; type: binding, human
Pyk2-FAT-LD1 = Pyk2-FAT-LD1 (Homo sapiens, UniProt Q14289); conditions: X-ray, 2.0 Å (4XEV); 0.5 mM protein, 2 mM leupaxin-LD4 peptide
Pyk2-FAT domain = conditions: ref [36]; cited from earlier work
[2] = target: Paxillin LD4 peptide LD4 (Homo sapiens) (UniProt P49023); conditions: cited from earlier work
Chain of Paxillin LD4 peptide LD4 (Homo sapiens) (P49023 263-282): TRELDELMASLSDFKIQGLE

[3] = target: paxillin LD4 LD4 motif peptide (Homo sapiens) (UniProt P49023); conditions: cited from earlier work
[4] = target: paxillin LD4 LD4 motif peptide (Homo sapiens) (UniProt P49023); conditions: cited from earlier work; remark: listed apart in the source
[5] = target: Paxillin LD4 peptide LD4 (Homo sapiens) (UniProt P49023); conditions: cited from earlier work; remark: listed apart in the source
[6] = target: T1, FAT domain of human Pyk2 (residues 871-1005) (human, UniProt Q14289 871-1005); experiment: ITC
[7] = target: T1, FAT domain of human Pyk2 (residues …); experiment: SEC-MALS
[8] = target: T1, FAT domain of human Pyk2 (residues …); experiment: ITC; remark: listed apart in the source
[9] = ITC, 20 mM MES, pH 6.2, 15°C, two-site sequential model, first site, duplicate
[10] = ITC, 20 mM MES, pH 6.2, 15°C, two-site sequential model, second site, duplicate

KTSAAAQLDELMAHLTEMQ [leupaxin-LD4]
Stoichiometry of binding (peptide to Pyk2-FAT) ([1]; ITC, 20 mM MES, pH 6.2, 15°C): 2 to 1 stoichiometry | ΔG, first site [1, 9]: -7.6 ± 0.3 kcal/mol | ΔH, first site [1, 9]: -3.0 ± 0.2 kcal/mol | −T.ΔS, first site [1, 9]: -4.6 ± 0.6 kcal/mol | ΔG, second site [1, 10]: -6.0 ± 0.1 kcal/mol | ΔH, second site [1, 10]: 0.5 ± 0.3 kcal/mol | −T.ΔS, second site [1, 10]: -6.5 ± 0.4 kcal/mol | Higher affinity at the preferred Pyk2-FAT binding site ([1]; ratio of the two site KDs (LD1 prefers H1/H4, LD4 prefers H2/H3)): ~19 fold | CSP differences between leupaxin-LD1 and leupaxin-LD4 (Pyk2-FAT; 4 equivalents peptide, 15N-labeled Pyk2-FAT, 20 mM MES, pH 6.2, 305K): residues Arg 918 and Ala 951 from H2/H3 show a high magnitude of CSP | NMR site preference on Pyk2-FAT (Pyk2-FAT; NMR titrations, LD1 for H1/H4, LD4 for H2/H3, respectively): strong preference for H1/H4 and H2/H3 sites of Pyk2-FAT, respectively | Binding site in crystal structure with Pyk2-FAT-LD1 (Pyk2-FAT-LD1): binds at the H2/H3 site | Binding behaviour with Pyk2-FAT (in words) (Pyk2-FAT domain): compete equally for H2/H3

Pyk2 FAT H2/H3 site (from UniProt Q14289)
Kd [2]: 8 µM

Pyk2 FAT (871-1005), H1/H4 site (from UniProt Q14289)
Kd [3]: 46.3 µM

Pyk2 FAT (871-1005), H2/H3 site (from UniProt Q14289)
Kd [4]: 8 µM

Pyk2 FAT H1/H4 site (from UniProt Q14289)
Kd [5]: 46.3 µM

MEELDALLEELERSTLQDSD (peptide, UniProt O60711 1-20, looked up) [leupaxin-LD1 peptide (human leupaxin; residues 1-20)]
dH first site [6]: -2 ± 0.2 kcal/mol | dH second site [6]: 1.6 ± 0.3 kcal/mol

B1: leupaxin^1-151 (human leupaxin; residues 1-151) (domain or fragment, UniProt O60711 1-151, looked up)
chain: MEELDALLEELERSTLQDSDEYSNPAPLPLDQHSRKETNLDETSEILSIQDNTSPLPAQLVYTTNIQELNVYSEAQEPKESPPPSKTSAAAQLDELMAHLTEMQAKVAVRADAGKKHLPDKQDHKASLDSMLGGLEQELQDLGIATVPKGH
stoichiometry N [7]: 1

KTSAAAQLDELMAHLTEMQ (peptide, UniProt O60711 86-104, looked up) [leupaxin-LD4 peptide (human leupaxin; residues 86-104)]
KD first site [6]: 2.2 ± 1 µM | KD second site [6]: 33 ± 7.2 µM | dH first site [6]: -3 ± 0.2 kcal/mol | dH second site [6]: 0.5 ± 0.3 kcal/mol

B2: leupaxin^1-105 (human leupaxin; residues 1-105) (domain or fragment, UniProt O60711 1-105, looked up)
chain: MEELDALLEELERSTLQDSDEYSNPAPLPLDQHSRKETNLDETSEILSIQDNTSPLPAQLVYTTNIQELNVYSEAQEPKESPPPSKTSAAAQLDELMAHLTEMQA
Kd [8]: 0.6 ± 0.2 µM | dH [8]: -2.5 ± 0.5 kcal/mol | stoichiometry N [8]: 1
